The format of data set [1] is physicochemical. Here is the method: The distribution coefficients (log D) were determined using the shake-flask method (see Additional file 1). […]
equivalents of DIPEA were used. The cleavage and deprotection of the peptide-chelator conjugates was accomplished by incubating for 1.5h in TFA:thioanisole:triisopropylsilane:H2O 95:2:2:1. The resin was then filtered and washed with the above mixture, after which the filtrate was evaporated and triturated with diethyl ether to give the crude product. This was purified by semi-preparative HPLC to obtain the corresponding chelator-peptide conjugate with purity ≥97%.
Radiolabeling of Chelator-Peptide Conjugates
177Lu-SS-03: 10 µg of SS-03 in 300 µL sodium acetate buffer (0.4 mol/L, pH 5.0) were […]
phosphate buffer pH 11.5 (50 μL) and 0.1 M sodium citrate (5 μL) followed by SS-04 solution (30 μg, 25 μL) and freshly prepared SnCl2 solution in ethanol (30 μg, 25 μL). […]
99mTc-SS-05: 30 µg SS05 was added to 1 mL aqueous edda/tricine solution (5 mg edda, 15 mg tricine). […] All radiolabeled peptides were analyzed with analytical HPLC. […]
Each radiopeptide was added to a presaturated 1/1mixture of PBS/n-octanol, at a concentration of 100 nmol/L. The mixtures were vigorously shaken for 10 min and then centrifuged. The activity concentrations of equal volume samples of both phases were measured in a γ-counter and the partition coefficient (LogD) was calculated. […]

The nature of another data set: in vivo. More on the design: species or system mice. To be noted: female, athymic nude, mouse, iv, 10 pmol, total radioactivity. Here is the method: All animal experiments were conducted in compliance with Swiss animal protection laws and associated regulations. The protocol was approved by the Cantonal Veterinary Ethics Committee of the University of Basel (approval #789). Female athymic nude mice (4–6 weeks old) were injected subcutaneously (s.c.) in the right shoulder with 10^7 HEK293-rsst2 cells in 100 μL sterile PBS. The tumours were allowed to grow for 14–18 days (tumour weight 100–200 mg).
The mice were injected into the tail vein with 100 μL/10 pmol/0.37 MBq of ^177Lu-SS-03 or ^99mTc-SS-04 and were euthanised at 1, 4, and 24 h post-injection (p.i.). Organs of interest and blood were collected, rinsed of excess blood, blotted dry, weighed, and counted in a γ-counter. To determine nonspecific uptake, three animals were pre-injected with 20 nmol of the relevant unlabelled peptide in 0.9% NaCl solution (0.1 mL); after 5 min, the radiopeptide was injected and the percentage of injected activity per gram (%IA/g) was calculated for each tissue. The total counts injected per animal were determined by extrapolation from counts of an aliquot taken from the injected solution as a standard.

Data set [2] has as its target T1, sst1 (Homo sapiens, UniProt P30872).
T1 construct: expressed in transfected cells; host or cells: Chinese hamster ovary cells (gift of Drs. T. Reisine and G. Singh)
Briefly: Receptor autoradiography binding affinity, sst1. To be noted: membrane pellet sections of human sst1-expressing CHO cells; mean ± SEM, n ≥ 3. Here is the method: (§1) Cell membrane pellets were prepared from human sst1-expressing Chinese hamster ovary cells (kindly provided by Drs. T. Reisine and G. Singh, University of Pennsylvania, Philadelphia, Pa.); sst2-, sst3-, and sst4-expressing CCL39 cells (kindly provided by Dr. D. Hoyer, Novartis Pharma, Basel, Switzerland); and sst5-expressing human embryonic kidney 293 (HEK293) cells (kindly provided by Prof. Stefan Schulz, University of Jena, Germany) and stored at − 80 °C. Quantitative receptor autoradiography was performed on 20-μm-thick membrane pellet sections and quantitated as previously described.

The target in data set [3] is T2, sst5 (Homo sapiens, UniProt P35346).
T2 construct: expressed in transfected cells; host or cells: HEK293 cells (gift of Prof. Stefan Schulz, University of Jena)
In words: Receptor autoradiography binding affinity, sst5. To be noted: membrane pellet sections of sst5-expressing HEK293 cells; mean ± SEM, n ≥ 3. How it is done:
as §1

For data set [4], the target named is T3, sst4 (Homo sapiens, UniProt P31391).
T3 construct: expressed in transfected cells; host or cells: CCL39 cells (gift of Dr. D. Hoyer, Novartis)
In words: Receptor autoradiography binding affinity, sst4. To be noted: membrane pellet sections of sst4-expressing CCL39 cells; mean ± SEM, n ≥ 3. How it is done: as §1

The target in data set [5] is T4, sst3 (Homo sapiens, UniProt P32745).
T4 construct: expressed in transfected cells; host or cells: CCL39 cells (gift of Dr. D. Hoyer, Novartis)
In words: Receptor autoradiography binding affinity, sst3. To be noted: membrane pellet sections of sst3-expressing CCL39 cells; mean ± SEM, n ≥ 3. Here is the method: as §1

Data set [6] concerns the target T5, sst2 (Homo sapiens, UniProt P30874).
T5 construct: expressed in transfected cells; host or cells: CCL39 cells (gift of Dr. D. Hoyer, Novartis)
In words: Receptor autoradiography binding affinity, sst2. The settings on record: membrane pellet sections of sst2-expressing CCL39 cells; mean ± SEM, n ≥ 3. How it is done: as §1

For data set [7], the target named is T2, sst5. To be noted: mean ± SEM; cited from earlier work. An excerpt:
Table 2 Binding affinities (IC50, nM) of chelator-peptide conjugates | column: IC50 (nM)* / sst5

Data set [8] has as its target T1, sst1. To be noted: mean ± SEM; cited from earlier work. An excerpt: Table 2 Binding affinities (IC50, nM) of chelator-peptide conjugates | column: IC50 (nM)* / sst1
Data set [9] concerns the target T3, sst4. To be noted: mean ± SEM; cited from earlier work. The text has this: Table 2 Binding affinities (IC50, nM) of chelator-peptide conjugates | column: IC50 (nM)* / sst4
The target of data set [10] is T5, sst2. The settings on record: mean ± SEM; cited from earlier work. The text has this:
Table 2 Binding affinities (IC50, nM) of chelator-peptide conjugates | column: IC50 (nM)* / sst2

The target in data set [11] is T4, sst3. The settings on record: mean ± SEM; cited from earlier work. The text has this: Table 2 Binding affinities (IC50, nM) of chelator-peptide conjugates | column: IC50 (nM)* / sst3

Here are results for five compounds from PMC6070450, “The tetraamine chelator outperforms HYNIC in a new technetium-99m-labelled somatostatin receptor 2 antagonist” (EJNMMI Research, 2018).

Where two headings read alike, the source gives them in different places.

T4 sequence (P32745 whole entry): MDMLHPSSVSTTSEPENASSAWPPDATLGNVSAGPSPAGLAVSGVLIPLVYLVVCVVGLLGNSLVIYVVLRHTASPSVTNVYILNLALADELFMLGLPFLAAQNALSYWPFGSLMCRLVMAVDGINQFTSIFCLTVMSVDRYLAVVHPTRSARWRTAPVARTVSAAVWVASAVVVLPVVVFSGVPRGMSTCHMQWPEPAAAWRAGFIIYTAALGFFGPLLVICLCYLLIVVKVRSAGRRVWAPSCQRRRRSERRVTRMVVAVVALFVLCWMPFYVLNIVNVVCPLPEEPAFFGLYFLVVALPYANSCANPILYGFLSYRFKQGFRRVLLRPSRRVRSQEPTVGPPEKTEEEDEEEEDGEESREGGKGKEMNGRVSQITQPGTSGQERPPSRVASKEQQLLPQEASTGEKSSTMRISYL
T2 sequence (P35346 whole entry): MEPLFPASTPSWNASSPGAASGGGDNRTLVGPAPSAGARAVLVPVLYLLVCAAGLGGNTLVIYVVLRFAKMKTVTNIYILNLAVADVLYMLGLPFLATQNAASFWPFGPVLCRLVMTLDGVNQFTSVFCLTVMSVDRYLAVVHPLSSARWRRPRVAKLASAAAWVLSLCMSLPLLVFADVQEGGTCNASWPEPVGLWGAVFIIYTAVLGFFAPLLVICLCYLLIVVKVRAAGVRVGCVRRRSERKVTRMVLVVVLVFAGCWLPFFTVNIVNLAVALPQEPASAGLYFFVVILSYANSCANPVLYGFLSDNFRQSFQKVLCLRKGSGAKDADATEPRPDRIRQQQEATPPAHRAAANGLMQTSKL
T5 sequence (P30874 whole entry): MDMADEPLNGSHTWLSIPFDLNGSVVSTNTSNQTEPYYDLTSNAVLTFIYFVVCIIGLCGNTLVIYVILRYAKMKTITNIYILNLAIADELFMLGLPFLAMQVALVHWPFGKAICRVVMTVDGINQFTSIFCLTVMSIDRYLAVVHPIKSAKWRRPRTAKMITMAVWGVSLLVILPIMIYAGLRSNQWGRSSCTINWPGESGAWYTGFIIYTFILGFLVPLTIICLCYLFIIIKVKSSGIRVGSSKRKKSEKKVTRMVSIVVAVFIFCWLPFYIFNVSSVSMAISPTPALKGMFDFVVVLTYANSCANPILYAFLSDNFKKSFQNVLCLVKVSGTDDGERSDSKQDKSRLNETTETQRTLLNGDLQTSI
T1 sequence (P30872 whole entry): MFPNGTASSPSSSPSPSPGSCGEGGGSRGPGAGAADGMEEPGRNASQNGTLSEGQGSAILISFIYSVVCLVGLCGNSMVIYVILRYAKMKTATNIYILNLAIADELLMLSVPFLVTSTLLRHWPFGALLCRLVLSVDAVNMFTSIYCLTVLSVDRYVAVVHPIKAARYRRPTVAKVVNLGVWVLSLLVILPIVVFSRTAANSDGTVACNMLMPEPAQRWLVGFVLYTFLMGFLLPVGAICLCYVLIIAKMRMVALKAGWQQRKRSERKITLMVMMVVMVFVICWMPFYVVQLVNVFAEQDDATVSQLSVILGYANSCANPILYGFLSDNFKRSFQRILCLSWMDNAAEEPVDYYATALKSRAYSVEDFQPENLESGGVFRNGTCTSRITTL
T3 sequence (P31391 whole entry): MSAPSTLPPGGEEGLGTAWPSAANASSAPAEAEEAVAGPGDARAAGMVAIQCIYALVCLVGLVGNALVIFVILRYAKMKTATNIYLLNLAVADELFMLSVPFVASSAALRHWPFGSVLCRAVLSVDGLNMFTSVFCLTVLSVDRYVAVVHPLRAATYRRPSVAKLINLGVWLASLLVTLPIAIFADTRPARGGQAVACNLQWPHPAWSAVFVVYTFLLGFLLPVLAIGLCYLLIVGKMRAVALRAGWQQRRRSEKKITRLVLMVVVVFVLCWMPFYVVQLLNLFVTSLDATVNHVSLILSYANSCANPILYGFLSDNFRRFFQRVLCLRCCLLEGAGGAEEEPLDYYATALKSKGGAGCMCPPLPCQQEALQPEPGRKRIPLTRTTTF

Usually tissue uptake stands for the percentage of the injected dose found per gram of tissue. `C[C@@H](O)[C@@H]1NC(=O)[C@H](CCCCN)NC(=O)[C@@H](Cc2c[nH]c3ccccc23)NC(=O)[C@H](Cc2ccc(O)cc2)NC(=O)[C@H](NC(=O)[C@H](Cc2ccc(Cl)cc2)NC(=O)CN2CCN(CC(=O)O)CCN(CC(=O)O)CCN(CC(=O)O)CC2)CSSC[C@@H](C(=O)N[C@H](Cc2ccc(O)cc2)C(N)=O)NC1=O` [^177Lu-SS-03, metal not drawn]: in [1], the “log D” value is listed as “− 2.35 ± 0.22”. Further, the tissue uptake at 1 h in “in vivo” (Adrenal uptake) was determined as 3.7 ± 0.63 %ID/g; in the data set “in vivo” (Blood uptake) it was 0.57 ± 0.04 %ID/g; in the data set “in vivo” (Bone uptake) it was 4.11 ± 0.53 %ID/g; in the data set “in vivo” (Heart uptake), 0.69 ± 0.12 %ID/g; in “in vivo” (Intestine uptake), 3.13 ± 1.16 %ID/g; in the data set “in vivo” (Kidney uptake), 15.2 ± 1.86 %ID/g. The tissue uptake at 1 h in the data set “in vivo” (Liver uptake) was 3 ± 0.66 %ID/g; in “in vivo” (Lung uptake), 13.2 ± 4.49 %ID/g; in the data set “in vivo” (Muscle uptake), 0.22 ± 0.06 %ID/g; in the data set “in vivo” (Pancreas uptake), 72.6 ± 13.8 %ID/g; in the data set “in vivo” (Spleen uptake), 1.51 ± 0.19 %ID/g; in the data set “in vivo” (Stomach uptake), 48.7 ± 13.1 %ID/g. In “in vivo” (Tumour uptake), the tissue uptake at 1 h was determined as 23.6 ± 1.28 %ID/g. Also, the tissue uptake at 4 h in the data set “in vivo” (Adrenal uptake) came out at 2.9 ± 0.46 %ID/g; in the data set “in vivo” (Blood uptake), 0.21 ± 0.04 %ID/g; in “in vivo” (Bone uptake) it was 2.77 ± 1.06 %ID/g; in the data set “in vivo” (Heart uptake), 0.38 ± 0.07 %ID/g; in the data set “in vivo” (Intestine uptake), 2.28 ± 0.31 %ID/g; in the data set “in vivo” (Kidney uptake), 17 ± 1.81 %ID/g. Moreover, the tissue uptake at 4 h in the data set “in vivo” (Liver uptake) is 1.75 ± 0.22 %ID/g; in “in vivo” (Lung uptake), 6.71 ± 1.37 %ID/g; in “in vivo” (Muscle uptake), 0.12 ± 0.02 %ID/g; in the data set “in vivo” (Pancreas uptake), 54.5 ± 7.28 %ID/g; in “in vivo” (Spleen uptake) it was 1.42 ± 0.77 %ID/g; in “in vivo” (Stomach uptake) it was 30.2 ± 4.25 %ID/g. Further, the tissue uptake at 4 h in “in vivo” (Tumour uptake) stood at 31.7 ± 4 %ID/g. Moreover, the tissue uptake at 24 h in the data set “in vivo” (Adrenal uptake) was 1.16 ± 0.46 %ID/g; in the data set “in vivo” (Blood uptake), less than 0.1 %ID/g; in the data set “in vivo” (Bone uptake) it was 1.25 ± 0.16 %ID/g; in the data set “in vivo” (Heart uptake), 0.11 ± 0.04 %ID/g; in “in vivo” (Intestine uptake), 0.27 ± 0.06 %ID/g; in the data set “in vivo” (Kidney uptake), 7.35 ± 1.66 %ID/g. In addition, the tissue uptake at 24 h stood at 0.47 ± 0.07 %ID/g in “in vivo” (Liver uptake); 0.74 ± 0.22 %ID/g in the data set “in vivo” (Lung uptake); 0.07 ± 0.02 %ID/g in the data set “in vivo” (Muscle uptake); 3.03 ± 0.62 %ID/g in the data set “in vivo” (Pancreas uptake); 0.33 ± 0.06 %ID/g in the data set “in vivo” (Spleen uptake); 6.02 ± 1.4 %ID/g in the data set “in vivo” (Stomach uptake). For the same compound, in “in vivo” (Tumour uptake), the tissue uptake at 24 h amounted to 26.3 ± 4.42 %ID/g. Also, the tissue to tissue ratio at 1 h stood at 41.3 in the data set “in vivo” (Tumour/blood ratio); 5.7 in “in vivo” (Tumour/bone ratio); 1.56 in “in vivo” (Tumour/kidney ratio); 7.9 in “in vivo” (Tumour/liver ratio); 110 in the data set “in vivo” (Tumour/muscles ratio). The tissue to tissue ratio at 4 h in “in vivo” (Tumour/blood ratio) was found to be 150; in “in vivo” (Tumour/bone ratio), 11.5; in the data set “in vivo” (Tumour/kidney ratio) it was 1.86; in “in vivo” (Tumour/liver ratio) it was 18.1; in “in vivo” (Tumour/muscles ratio), 259. Also, the tissue to tissue ratio at 24 h amounted to 361 in “in vivo” (Tumour/blood ratio); 21.1 in the data set “in vivo” (Tumour/bone ratio); 3.58 in the data set “in vivo” (Tumour/kidney ratio); 55.8 in the data set “in vivo” (Tumour/liver ratio); 372 in “in vivo” (Tumour/muscles ratio).
In general, IC50 refers to the point on the concentration scale where inhibition reaches its midpoint. Take `C[C@@H](O)[C@@H]1NC(=O)[C@H](CCCCN)NC(=O)[C@@H](Cc2c[nH]c3ccccc23)NC(=O)[C@H](Cc2ccc(O)cc2)NC(=O)[C@H](NC(=O)[C@H](Cc2ccc(Cl)cc2)NC(=O)C(CNCCN)CNCCN)CSSC[C@@H](C(=O)N[C@H](Cc2ccc(O)cc2)C(N)=O)NC1=O` [SS-04, N4-(4-Cl)-Phe-Cyclo(D-Cys-Tyr-D-Trp-Lys-Thr-Cys)-D-Tyr-NH2]: the IC50 is greater than 1000 nM at sst1 [2]; 228 ± 73 nM on sst5 [3]; 171 ± 35 nM on sst4 [4]; 720 ± 74 nM on sst3 [5]; 5.3 ± 0.17 nM at sst2 [6].
For “DOTA-pNO2Phe-cyclo[D-Cys-Tyr-D-Trp-Lys-Thr-Cys]-D-Tyr-NH2 (disulfide) [DOTA-sst2-ANT]”, the IC50 in the data set with sst5 [7] is greater than 1000 nM; with sst1 [8], greater than 1000 nM; in the data set with sst4 [9], 287 ± 27 nM; in the data set with sst2 [10] it was 1.5 ± 0.4 nM; in the data set with sst3 [11] it was greater than 1000 nM.
Turning to `C[C@@H](O)[C@@H]1NC(=O)[C@H](CCCCN)NC(=O)[C@@H](Cc2c[nH]c3ccccc23)NC(=O)[C@H](Cc2ccc(O)cc2)NC(=O)[C@H](NC(=O)[C@H](Cc2ccc(Cl)cc2)NC(=O)CN2CCN(CC(=O)O)CCN(CC(=O)O)CCN(CC(=O)O)CC2)CSSC[C@@H](C(=O)N[C@H](Cc2ccc(O)cc2)C(N)=O)NC1=O` [SS-03, DOTA-(4-Cl)-Phe-Cyclo(D-Cys-Tyr-D-Trp-Lys-Thr-Cys)-D-Tyr-NH2], the IC50 was greater than 1000 nM on sst1 [2]; 564 ± 174 nM at sst5 [3]; 404 ± 92 nM at sst4 [4]; greater than 1000 nM on sst3 [5]; 1.7 ± 0.06 nM on sst2 [6].
Turning to `C[C@@H](O)[C@@H]1NC(=O)[C@H](CCCCN)NC(=O)[C@@H](Cc2c[nH]c3ccccc23)NC(=O)[C@H](Cc2ccc(O)cc2)NC(=O)[C@H](NC(=O)[C@H](Cc2ccc(Cl)cc2)NC(=O)c2ccc(NN)nc2)CSSC[C@@H](C(=O)N[C@H](Cc2ccc(O)cc2)C(N)=O)NC1=O` [^99mTc-SS-05, metal not drawn], the “log D” value in [1] is “− 2.03 ± 0.27”.
